Test results from the supplement of paper PMC5998384.

Key:
[1] = system: HeLa Kyoto; assay: thermal stability score vs G1/S (z-score of summed log2 fold changes over temperatures); higher = more thermally stable than in G1/S
[2] = system: HeLa Kyoto; assay: solubility change mitosis vs G1/S (difference of NP-40 vs SDS log2 ratios) (log2 ratio difference); higher = more soluble in mitosis
[3] = system: HeLa Kyoto; assay: melting temperature (median over replicates), in situ; higher = more thermally stable
[4] = system: HeLa Kyoto; assay: solubility in G1/S (NP-40 vs SDS abundance) (log2 ratio); higher = more soluble; conditions: cell cycle stage: G1/S
[5] = cell cycle stage: early G1 (4.5 h after nocodazole release)
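Throughout, for melting temperature (median over replicates), in situ: HeLa Kyoto cells synchronized by double thymidine or nocodazole block, proteins quantified by TMT10plex mass spectrometry, three independent biological replicates.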
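Throughout, for solubility change mitosis vs G1/S (difference of NP-40 vs SDS log2 ratios): synchronized HeLa Kyoto cells (double thymidine block for G1/S, nocodazole release for mitosis), protein amounts in NP-40 versus SDS lysates quantified by mass spectrometry, three biological replicates.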
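Throughout, for solubility in G1/S (NP-40 vs SDS abundance): HeLa Kyoto cells arrested at G1/S by double thymidine block, proteins quantified by TMT10plex mass spectrometry in mild NP-40 versus SDS extracts, three biological replicates.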
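Throughout, for thermal stability score vs G1/S (z-score of summed log2 fold changes over temperatures): synchronized HeLa Kyoto cells, proteins quantified by TMT10plex mass spectrometry, three biological replicates, mitosis taken 0.5 h after nocodazole release, G1/S directly after double thymidine block.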

Sequence | thermal stability score [1, 5] | thermal stability score ([1]; cell cycle stage: mitosis) | solubility change mitosis (log2) [2] | melting temperature ([3]; cell cycle stage: G1/S) | melting temperature ([3]; cell cycle stage: mitosis) | solubility in G1/S (log2) [4]
MASILRSPQALQLTLALIKPDAVAHPLILEAVHQQILSNKFLIVRMRELLWRKEDCQRFYREHEGRFFYQRLVEFMASGPIRAYILAHKDAIQLWRTLMGPTRVFRARHVAPDSIRGSFGLTDTRNTTHGSDSVVSASREIAAFFPDFSEQRWYEEEEPQLRCGPVCYSPEGGVHYVAGTGGLGPA [NME6] | -2.16 | -1.08 | 0.636 | 51.3 °C | 55.2 °C | 0.31
MCSLASGATGGRGAVENEEDLPELSDSGDEAAWEDEDDADLPHGKQQTPCLFCNRLFTSAEETFSHCKSEHQFNIDSMVHKHGLEFYGYIKLINFIRLKNPTVEYMNSIYNPVPWEKEEYLKPVLEDDLLLQFDVEDLYEPVSVPFSYPNGLSENTSVVEKLKHMEARALSAEAALARAREDLQKMKQFAQDFVMHTDVRTCSSSTSVIADLQEDEDGVYFSSYGHYGIHEEMLKDKIRTESYRDFIYQNPHIFKDKVVLDVGCGTGILSMFAAKAGAKKVLGVDQSEILYQAMDIIRLNKLEDTITLIKGKIEEVHLPVEKVDVIISEWMGYFLLFESMLDSVLYAKNKYLAKGGSVYPDICTISLVAVSDVNKHADRIAFWDDVYGFKMSCMKKAVIPEAVVEVLDPKTLISEPCGIKHIDCHTTSISDLEFSSDFTLKITRTSMCTAIAGYFDIYFEKNCHNRVVFSTGPQSTKTHWKQTVFLLEKPFSVKAGEALKGKVTVHKNKKDPRSLTVTLTLNNSTQTYGLQ [PRMT3] | 0.9 | 1.13 | -0.212 | 50.9 °C | 51 °C | -0.146
MARYEEVSVSGFEEFHRAVEQHNGKTIFAYFTGSKDAGGKSWCPDCVQAEPVVREGLKHISEGCVFIYCQVGEKPYWKDPNNDFRKNLKVTAVPTLLKYGTPQKLVESECLQANLVEMLFSED [TXNDC17] | 4.94 | 2.6 | -0.128 | 50.8 °C | 51.6 °C | 0.304
MEGDAVEAIVEESETFIKGKERKTYQRRREGGQEEDACHLPQNQTDGGEVVQDVNSSVQMVMMEQLDPTLLQMKTEVMEGTVAPEAEAAVDDTQIITLQVVNMEEQPINIGELQLVQVPVPVTVPVATTSVEELQGAYENEVSKEGLAESEPMICHTLPLPEGFQVVKVGANGEVETLEQGELPPQEDPSWQKDPDYQPPAKKTKKTKKSKLRYTEEGKDVDVSVYDFEEEQQEGLLSEVNAEKVVGNMKPPKPTKIKKKGVKKTFQCELCSYTCPRRSNLDRHMKSHTDERPHKCHLCGRAFRTVTLLRNHLNTHTGTRPHKCPDCDMAFVTSGELVRHRRYKHTHEKPFKCSMCDYASVEVSKLKRHIRSHTGERPFQCSLCSYASRDTYKLKRHMRTHSGEKPYECYICHARFTQSGTMKMHILQKHTENVAKFHCPHCDTVIARKSDLGVHLRKQHSYIEQGKKCRYCDAVFHERYALIQHQKSHKNEKRFKCDQCDYACRQERHMIMHKRTHTGEKPYACSHCDKTFRQKQLLDMHFKRYHDPNFVPAAFVCSKCGKTFTRRNTMARHADNCAGPDGVEGENGGETKKSKRGRKRKMRSKKEDSSDSENAEPDLDDNEDEEEPAVEIEPEPEPQPVTPAPPPAKKRRGRPPGRTNQPKQNQPTAIIQVEDQNTGAIENIIVEVKKEPDAEPAEGEEEEAQPAATDAPNGDLTPEMILSMMDR [CTCF] | -1.57 | -1.93 | 0.0343 | 55.5 °C | 54.4 °C | -0.451
MADHVQSLAQLENLCKQLYETTDTTTRLQAEKALVEFTNSPDCLSKCQLLLERGSSSYSQLLAATCLTKLVSRTNNPLPLEQRIDIRNYVLNYLATRPKLATFVTQALIQLYARITKLGWFDCQKDDYVFRNAITDVTRFLQDSVEYCIIGVTILSQLTNEINQADTTHPLTKHRKIASSFRDSSLFDIFTLSCNLLKQASGKNLNLNDESQHGLLMQLLKLTHNCLNFDFIGTSTDESSDDLCTVQIPTSWRSAFLDSSTLQLFFDLYHSIPPSFSPLVLSCLVQIASVRRSLFNNAERAKFLSHLVDGVKRILENPQSLSDPNNYHEFCRLLARLKSNYQLGELVKVENYPEVIRLIANFTVTSLQHWEFAPNSVHYLLSLWQRLAASVPYVKATEPHMLETYTPEVTKAYITSRLESVHIILRDGLEDPLEDTGLVQQQLDQLSTIGRCEYEKTCALLVQLFDQSAQSYQELLQSASASPMDIAVQEGRLTWLVYIIGAVIGGRVSFASTDEQDAMDGELVCRVLQLMNLTDSRLAQAGNEKLELAMLSFFEQFRKIYIGDQVQKSSKLYRRLSEVLGLNDETMVLSVFIGKIITNLKYWGRCEPITSKTLQLLNDLSIGYSSVRKLVKLSAVQFMLNNHTSEHFSFLGINNQSNLTDMRCRTTFYTALGRLLMVDLGEDEDQYEQFMLPLTAAFEAVAQMFSTNSFNEQEAKRTLVGLVRDLRGIAFAFNAKTSFMMLFEWIYPSYMPILQRAIELWYHDPACTTPVLKLMAELVHNRSQRLQFDVSSPNGILLFRETSKMITMYGNRILTLGEVPKDQVYALKLKGISICFSMLKAALSGSYVNFGVFRLYGDDALDNALQTFIKLLLSIPHSDLLDYPKLSQSYYSLLEVLTQDHMNFIASLEPHVIMYILSSISEGLTALDTMVCTGCCSCLDHIVTYLFKQLSRSTKKRTTPLNQESDRFLHIMQQHPEMIQQMLSTVLNIIIFEDCRNQWSMSRPLLGLILLNEKYFSDLRNSIVNSQPPEKQQAMHLCFENLMEGIERNLLTKNRDRFTQNLSAFRREVNDSMKNSTYGVNSNDMMS [XPO7] | 0.0845 | 0.043 | -0.207 | 52.2 °C | 52.2 °C | -0.0594
MFSVESLERAELCESLLTWIQTFNVDAPCQTVEDLTNGVVMAQVLQKIDPAYFDENWLNRIKTEVGDNWRLKISNLKKILKGILDYNHEILGQQINDFTLPDVNLIGEHSDAAELGRMLQLILGCAVNCEQKQEYIQAIMMMEESVQHVVMTAIQELMSKESPVSAGNDAYVDLDRQLKKTTEELNEALSAKEEIAQRCHELDMQVAALQEEKSSLLAENQVLMERLNQSDSIEDPNSPAGRRHLQLQTQLEQLQEETFRLEAAKDDYRIRCEELEKEISELRQQNDELTTLADEAQSLKDEIDVLRHSSDKVSKLEGQVESYKKKLEDLGDLRRQVKLLEEKNTMYMQNTVSLEEELRKANAARSQLETYKRQVVELQNRLSEESKKADKLDFEYKRLKEKVDSLQKEKDRLRTERDSLKETIEELRCVQAQEGQLTTQGLMPLGSQESSDSLAAEIVTPEIREKLIRLQHENKMLKLNQEGSDNEKIALLQSLLDDANLRKNELETENRLVNQRLLEVQSQVEELQKSLQDQGSKAEDSVLLKKKLEEHLEKLHEANNELQKKRAIIEDLEPRFNNSSLKIEELQEALRKKEEEMKQMEERYKKYLEKAKSVIRTLDPKQNQGAAPEIQALKNQLQERDRLFHSLEKEYEKTKSQREMEEKYIVSAWYNMGMTLHKKAAEDRLASTGSGQSFLARQRQATSSRRSYPGHVQPATAR [HOOK3] | 0.316 | 0.85 | -0.00542 | 50.4 °C | 51 °C | 0.753
